Measurements reported in the DeepSol protein solubility set.

Test: soluble on expression in E. coli; label from the status in PepcDB or PDB records

Row | Sequence | soluble on expression in E. coli
1 | MAHHHHHHMEFLVADAERMYTVNGRLQHLSYWSYKILARSFLESYQNPPLLNSNRAAQNFSKGSGYVDFCTWHRYSEFEWLAAQVELEFPGMLFPPIPSKETDGTVDKFTELLTSVKENNSTTRENPLVKKRMRHLQLTFNAIAQLHELHESPLLKAFVTLDELSWCAFREEREKKMKTSILTIFKAKGLSIIAKLRSFRESSNHDYTLDSPLDSVATRQSDLGELLNTCFAQVEYINKYCISEWRHWSDVNKLRGSIQGSPMPWTACYGGHHVQHSKHPGLEGVVREINNDAAVVEWNGQGGKLSKVPLDELNYPSSGISDPAIFALQELASQVESYFMYLSRSSGVAVLRDVEDLLWFLSSYANRCVRVIRRFREMRSEVRYLTRVVEKKASVEQFEQLERLKQILSKGTSRFMEQYNNFYRCFMRNSLMEVAHKFGRVITVIMSDDQWNERLSVAKTMLTLSLPLLPEEREEIFAEDASKRDSPPMKQVNGLEG | soluble
2 | MAHHHHHHMEGEEYDKILVLNFGSQYFHLIVKRLNNIKIFSETKDYGVELKDIKDMNIKGVILSGGPYSVTEAGSPHLKKEVFEYFLEKKIPIFGICYGMQEIAVQMNGEVKKSKTSEYGCTDVNILRNDNINNITYCRNFGDSSSAMDLYSNYKLMNETCCLFENIKSDITTVWMNHNDEVTKIPENFYLVSSSENCLICSIYNKEYNIYGVQYHPEVYESLDGELMFYNFAYNICKCKKQFDPIRYHELELKNIEKYKHDHYVIAAMSGGIDSTVAAAYTHKIFKERFFGIFIDNGLLRKNEAENVYTFLKSTFPDMNITKIDASENFLSNLQGVTDPEQKRKIIGKLFIEEFEKAVNNIDIDINKTFLLQGTLYPDIIESKCSKNLSDTIKTHHNVGGLPKNLKFKLFEPFKYLFKDDVKTLSRELNLPEEITNRHPFPGPGLAIRVIGEINKHKLNILREVDDIFINDLKQYGLYNQISQAFAVLLSSKSVGVRGDARSYDYVCVLRAVKTSSFMTANWYQIPYDILDKITTRILSEVKGVNRILYDVSSKPPATIEFE | soluble
3 | MAHHHHHHMEHVNANEKNGYLASEKNELTKNKVEEHTYDYDYVVIGGGPGGMASAKEAAAHGARVLLFDYVKPSSQGTKWGIGGTCVNVGCVPKKLMHYAGHMGSIFKLDSKAYGWKFDNLKHDWKKLVTTVQSHIRSLNFSYMTGLRSSKVKYINGLAKLKDKNTVSYYLKGDLSKEETVTGKYILIATGCRPHIPDDVEGAKELSITSDDIFSLKKDPGKTLVVGASYVALECSGFLNSLGYDVTVAVRSIVLRGFDQQCAVKVKLYMEEQGVMFKNGILPKKLTKMDDKILVEFSDKTSELYDTVLYAIGRKGDIDGLNLESLNMNVNKSNNKIIADHLSCTNIPSIFAVGDVAENVPELAPVAIKAGEILARRLFKDSDEIMDYSYIPTSIYTPIEYGACGYSEEKAYELYGKSNVEVFLQEFNNLEISAVHRQKHIRAQKDEYDLDVSSTCLAKLVCLKNEDNRVIGFHYVGPNAGEVTQGMALALRLKVKKKDFDNCIGIHPTDAESFMNLFVTISSGLSYAAKG | not soluble
4 | MAHHHHHHMELSKYAGLSSERLDCLRNLDIRKRSIYKGSTFSYGNNIYDILHNYSDKQKENKSDGVSVAHDYKDFQRNIKFAGLESEIKNDINIRNRRIKNDMNYRNDNLKDILQNNMNEQNINNSKYFLSDKGYVLTPKRCLARHVDDSEINKYFSTKYAVTDSSTGRTEIMVERKPGCSNIIVQNFSEFDAYGTYKKKDERINRRDSFVHTKMGIVPRDGSCIDNNKCKAQATFTHIHRRDNIAPDNYWLCPTIESDKKNKTKR | not soluble
5 | MAHHHHHHMEQQGDSEAKEHGELTRNGITDNAYDNSVGAFNRTILDRYAHWMTQLDQGACGLRIWKAEELWKRYERVIRVGRGSFGSVFIVYDTERKAYLTVKCMELLGKPGPALRSLSQPTLREVILLSQIDHPNVVRLIDYYLTSDGMLHMCMPIVSHDLVSLIRIWKMRGPRGESSLGRMPLPTVKCVFRQLLRGLEYLHRRNIIHRDLKPSNVMLDDNGVVKIVDFGWARFVPRRWQGRLTGPPCVVTYRPPEILLGGQCSFKYDSSIDIWSAGCILYEMLTGGKAFSNARNEQQALAAITDMLGSPSSRSEVYYGAAGGSRLRPSKRQPRNFEERCRMVNMSNESIDFLGEMLQLEPNSRKSASQLLGHSWFSTSPLPCEPEEVSLPGSNTYRLLERKRTR | not soluble
6 | MAHHHHHHMESINRNNNINKNEIDNKINNNNNMDVPIEGNEKSQEGDIIGQFGVGFYSSFVVSNKVEVFTRSYDNNSSKGYHWVSYGNGTFTLKEVDNIPKGTKIICHLKDSCKEFSNIQNVQKIVEKFSSFINFPVYVLKKKKILQT | soluble
7 | MAHHHHHHMESINRNNNINKNEIDNKINNNNNMDVPIEGNEKSQEGDIIGQFGVGFYSSFVVSNKVEVFTRSYDNNSSKGYHWVSYGNGTFTLKEVDNIPKGTKIICHLKDSCKEFSNIQNVQKIVEKFSSFINFPVYVLKKKKILQTRKDIEQNELNDHTQQNELNHHNDQNDHTQQNELNHHNDQNDHTQQNELNHHNDQNDHTQQNELNHHVEHHKNVVENKNDEYEKNMDNRTSDNIKPESLSKQNDYENMNQCNNEETVLNRTKELNEEHIVEEILVNKQKPLWCKDNVTEEEHRHFFHFLNKNKSYNEDNKSYLYNMLYKTDAPLSIKSVFYIPEEAPSRLFQQSNDIEISLYCKKVLVKKNADNIIPKWLYFVKGVIDCEDMPLNISRENMQDSSLINKLSRVVVSKILKTLEREADINEEKYLKFYKNYNYNLKEGVLEDSNKNHYKNSLMNLLRFYSINQNKFISLKQYVNNFRNNQKNIYYFSANDKNVALNSPYMEPFKKQNIDVLLLLEEIDEFVLMNLQTYKDAKFVSIDTSQNEDFDEAVLNTNKNDNEKKQSIFFNDEQKKELQAYFKQVLGSKCSDVKFSERLTTSPAVVTGFLSPTLRKVMKATMKNSDFNDNTNNSNNMNMFQNLPATLELNPSHTIVTSIYHLKNTNQEVAKLLVQQLYDNACIAAGILEDPRSLLSKLNELLLLTARYAYHYEKKDIQENTKDQPIDVKDNTMAIDNIVNTKENNTNDDSVMKEAQSSNL | not soluble
8 | MAHHHHHHMESNNHTTDLPSHAPGVEAAPIAAATPPLTGLAEGAVVTEGASHPKMAAAEPSEATATESPPSPHSTGEAKTQNALAALMSVLDNDEAARRGGTSLRSLQKMCMRVPQLSTELTRPQRFQLYCLLLLEDGDDPAVPGGAAGQEDWTTYTKQALETHVHMAKQAAALFPPPSTSPPTNSPASSTAWAPMRPFTSIRQ | soluble
9 | MAHHHHHHMFLAATLDGVRSILSRIDPRQLHLYEIIREGSPCHLYLDVERESNHTALQHVIAVDDDSTSSSVEEADSLVQVEEDVGGTRRIVFQCCQSRYQELRRLAVRDPTDVCGLDCRIEPDNRNTCDVLLSALNSFVRDRHPSWVPPGLQAEGPGSVFADAWVLESVPLSGAATKFSQHYILKLHGRMFESTNSVKAFVRDFVAHVRERAAHDSQLHGALFFHKPPAWYPVFRELPLDYPRTTFPYLPRRCVIDEAVYSKNRMMRCVGSCKLGKQSVLLPYRHYVAGSCVEYFSNSANAASVSLDVFLSTLIAHRFAKDVAPVSLIKLTEEIEAPKNTRACALPASVSEGTAPATLHTVSLDVDIALLTSSLQRAYSQVANRACTVAQPHSLHGRFLSFSVRGTRYCQHIGREHKSNNVYLVVDTERMTFVQKCFDPDCASYRSPPRLLGGTP | not soluble
10 | MAHHHHHHMFNHDIIKEKDNYKQKIRTLYRNEKEAIKPCNHYDMKEEEKKKSGKIKRSIKLFGTPAVHGLSSHINNNSGTQLYYNFHNVLKRDKEKIQDDNLNYTLERDAGEDNTMQSIHESDKTETQECGKHYLYNKFDIYKSYLSYKKDLIRNEYDQDYKGITTSLLKGKDTHDDNKDNKDNDDNDDNDDNNDHNDHYDITRDDPCDDMCDDMCEDMCDDMCDDMCDDPCDDMCDDPCDDMCDDPCDDMCDDPCDDPYDHPYEEEKYSTYCDKGYLRNFLKNAIIRPNLQTFVGRKIISFLNEKERDIFSLTCKILFFEVYSVSNLKTLYKYQFISNEKRSFIWKAILLEDNTYISEEDYKELRNRKCLYDKAIEKDINRTFPKHPFFINKNMNMQDKLLDILKVCSLYFERIGYCQGMNYIAGILLLVFRKNIDTIRCFISMLKNYNIKGMFSYNFPQLKKIIYQLNLLIKAYIPKLFYYFKRKKIKIDFFCVNWFLTLFSQDLSFENTLKLWDLFFLFGMKILIKLTLILLYYHEDNIIHLSYDEALTYLKAITKTPFIDYLFQDDHFFTHLKKFKITNSMLTQIIMLKKSRQKINLLVKENNGKLRCSIQIKQNNKHTFTSKIKEGFRNLFKLNENYVDYINYFYQKGDGEENNGNQNNGEEYNGKEYNGNQNNGNQNNGKQNNGNQNNGKQNNGNQNNVKQNNGEDTNKNNNNDDINNNICHNNYSSTNFYKNFFQHFNCGNIFNNPNYSNEIVLTNTTCLSVHFNSNVLCNSQNIKNKNTIHSLENIKEEHDHTKNPSNFFLETNTYYDLNLTKSVDGNN | soluble
11 | MAHHHHHHMFVRSFCFLRKYGSKSKTPDLKTSFTKTTNFRKAEKISITTTDGEIVKGRGKIRRRTHSALKEAIGAMEHPAIWLWYPWRMNPEPPTPHMPQRRALKNVHGAVFNDLTPVQKKRQEQMLYGVNIPETRQMKFEEQHPLLAGALRKLEGQPKGFPFWYRKYPTRRHAYEYRFSIPVEMLDGYNDDVKKALSKGMMSIQEKQFAQEAMYMERYAEHDFDTTSPAVLAVKRALKCRVLRNHLLTNPHNNIIKTVLANTERKLNHALRRLRKVDFKKYWEIIRDHDVQDILQPPNLVTYRQGSYWKYDWNAGLAISTNLADVMDPRGLNGCVETGRSRSEVARDLGLSYTRPLHENEKKQLSHQAVYYERLAKFKMEQPEAARAMERERFVRKFSGMFVKMDIRSGAPDFPSTYRRLLGTKVVRWASKRHGPN | not soluble
12 | MAHHHHHHMGAKILTKIQREKLVEWENCVSVIEAAILKHKYKQKVNKNIPSLLRVQAHIRKKMV | not soluble
13 | MAHHHHHHMGDNIEKRYSLALYNVGKKNKKINEITSDILFIKNNFLKDKSFLNFLHTPNIESREKLNFLKTECKKYNNNFSPITSNFLESLFDSKRIKFLQKIIEEFELLLMKERKEIKCVVYTAKEINNNEKQKIQESILFKLKNELKPLIEYKIDKSILGGLVLQIGNQVFDFSAKYKIEKIRSTLS | not soluble
14 | MAHHHHHHMGFSLLHPLPSAIHAGSNSSRLAVQRNPCRRSTEWCHGGSSGKQKKQRHCRGSEAGRPSGLPPNPRAPPPHHHRSAEGPRRPARHRRRHRRCTEDRPSSKPPAAHPRCRWARSPRRLSEHLGRLPLLGRRILLGCSQVDILRWGAAAGINALRNGDGCPLAILVQ | not soluble
15 | MAHHHHHHMGGFSSKNMEYYNYASMKLLDRSKYINEEEEEDDYHYCKETDIRETIKKAREIKNCNYKESMDLYIKALKTLKKLKENNSRIYRNVLEFEIRPQEIANSMSLKNSLEKNMYMKKEGDKDYTGGPSNDNQTISINNKIASLYNEIADLCCIHDFIEKSLFYYDKACSYNPSKIDYIYKKGVLFQQMNDTERAINTFKIILSSEPNHIPTLFSLGNLYRYIDNHIALSYFEAILKIEPNNTEVLSLIASCYDNLGKLNEAISYQNKAVQIDPDNFNHKKFAQRLIEMKSHN | not soluble
16 | MAHHHHHHMGHKNSSNISSAPVPPPFYVLPGVPVPSLKPSNLDFSATSGKPILCAGWIAPHGNRSWSRRNVVYSSEIEIPVPQPCQVRVKIYAAGVNPADAHRTAVLPSSPEVGTSGKSRRASRHPRPPFKFPYVVGIEGAGVVESVGWAAASSGERDGSAGALTSANARDIRVGDRVAFLADLMQESGGTFCQYAVVDSDVLWKLPEVVCAPPPSTGGLVPGRLIDFVEAASLPAAAATAYIALFDKLRIETQRAIFISGASGGVGSAAVQLAHYFGLYVIASCSTPNVRYVQSLGADYVVDYTRADVVEEILTYTDNYGVDYLLECAGAFMAEAHSETVRFGGALCVLTGLLSPRSDIVFRRQLSVHYVCLGMQHQDPLARTQLQPLGELVMQLYIQGAFSVNAEQVPFVQAADALDLVASGHGRGKIVLTNFHTNEEKEERLRRRHVQLYEKAQHQYQVEETQKAAGAAAATAASEAASREAG | not soluble
